Earlier results as cited in paper PMC9871372.

Biological target: NisA precursor peptide (Lactococcus lactis) (UniProt P13068)
UniProt P13068, sequence (P13068 24-57): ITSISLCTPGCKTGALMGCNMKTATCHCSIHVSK

Kd: 1050 nM
Substance: NisB (from UniProt P20103)
